Test results as given in paper PMC2901339.
Like-named read-outs stand apart in the source and are kept apart here. Blank lines part the entries; values can stand above or below the molecule they belong to.

What was measured:
[1] = target: NF-R13E/R14E (N-terminally FLAG-tagged PLN R13E/R14E) (rabbit) (UniProt P61015); assay: co-IP; lysates of transfected HEK cells, FLAG-tagged PLN constructs precipitated with anti-Flag antibody and Protein G-Sepharose, 4°C, 0.1% Triton-X100, blot with COP I antibody
NF-PLN RΔ14 (rabbit) = NF-PLN RΔ14 (rabbit) (UniProt P61015); assay: as above
[2] = target: coatomer protein I (COP-I), endogenous, HEK cells (human (endogenous in HEK-293)) (UniProt P53618); assay: co-IP; lysates of HEK cells transfected with V5 tagged constructs, immunoprecipitated with anti COP I antibody, blot with anti V5 antibody
[3] = target: coatomer protein I (COP-I), endogenous, HEK cells (human (endogenous in HEK-293)) (UniProt P53618); assay: as above; remark: listed apart in the source

fold reduction in band intensity against NF-PLN [1]: 5 fold
fold reduction in band intensity against NF-PLN (NF-PLN RΔ14 (rabbit)): 5 fold
Molecule: coatomer protein I (COP-I), endogenous, HEK cells (from UniProt P53618 1-953) (complex)

fold band intensity of the wild type over this mutant [2]: > 2 fold
Molecule: V5 tagged Sigma 1R R7E/R8E (from UniProt Q99720 1-223) (natural protein)

fold band intensity of the wild type over this mutant [3]: > 2 fold
B1: V5 tagged SR β R7E/R8E (natural protein)
chain: MASADSEEVADGGGAGGTFQPYLDTLRQELQQTDPTLLSVVVAVLAVLLTLVFWKLIRSRRSSQRAVLLVGLCDSGKTLLFVRLLTGLYRDTQTSITDSCAVYRVNNNRGNSLTLIDLPGHESLRLQFLERFKSSARAIVFVVDSAAFQREVKDVAEFLYQVLIDSMGLKNTPSFLIACNKQDIAMAKSAKLIQQQLEKELNTLRVTRSAAPSTLDSSSTAPAQLGKKGKEFEFSQLPLKVEFLECSAKGGRGDVGSADIQDLEKWLAKIA
